From PMC11352460, “RILP Induces Cholesterol Accumulation in Lysosomes by Inhibiting Endoplasmic Reticulum–Endolysosome Interactions” (Cells, 2024)

T1: His-ORP1L(336-950aa) (UniProt Q9BXW6-1 336-950)
T1 construct: source: prokaryotic expressed, purified
T1 sequence (looked up): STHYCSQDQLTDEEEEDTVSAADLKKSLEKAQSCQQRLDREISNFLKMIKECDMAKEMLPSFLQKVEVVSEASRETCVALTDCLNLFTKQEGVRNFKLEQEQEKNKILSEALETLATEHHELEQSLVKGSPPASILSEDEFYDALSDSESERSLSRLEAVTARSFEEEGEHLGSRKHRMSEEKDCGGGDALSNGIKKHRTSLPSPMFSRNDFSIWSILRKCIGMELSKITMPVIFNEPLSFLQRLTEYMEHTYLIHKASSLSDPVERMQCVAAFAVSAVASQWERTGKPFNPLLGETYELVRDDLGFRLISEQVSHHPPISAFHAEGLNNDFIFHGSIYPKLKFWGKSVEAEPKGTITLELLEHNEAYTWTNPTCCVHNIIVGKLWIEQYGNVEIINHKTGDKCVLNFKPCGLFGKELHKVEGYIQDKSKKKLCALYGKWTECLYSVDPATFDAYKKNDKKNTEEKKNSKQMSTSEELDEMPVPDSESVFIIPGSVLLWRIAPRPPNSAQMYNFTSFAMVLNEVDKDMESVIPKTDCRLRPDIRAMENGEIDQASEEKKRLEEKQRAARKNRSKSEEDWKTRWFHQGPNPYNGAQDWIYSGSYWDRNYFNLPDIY

T2: His-ORP1L (UniProt Q9BXW6-1 1-950)
T2 construct: ORP1L in pET-28a; source: prokaryotic expressed, purified
T2 sequence (looked up): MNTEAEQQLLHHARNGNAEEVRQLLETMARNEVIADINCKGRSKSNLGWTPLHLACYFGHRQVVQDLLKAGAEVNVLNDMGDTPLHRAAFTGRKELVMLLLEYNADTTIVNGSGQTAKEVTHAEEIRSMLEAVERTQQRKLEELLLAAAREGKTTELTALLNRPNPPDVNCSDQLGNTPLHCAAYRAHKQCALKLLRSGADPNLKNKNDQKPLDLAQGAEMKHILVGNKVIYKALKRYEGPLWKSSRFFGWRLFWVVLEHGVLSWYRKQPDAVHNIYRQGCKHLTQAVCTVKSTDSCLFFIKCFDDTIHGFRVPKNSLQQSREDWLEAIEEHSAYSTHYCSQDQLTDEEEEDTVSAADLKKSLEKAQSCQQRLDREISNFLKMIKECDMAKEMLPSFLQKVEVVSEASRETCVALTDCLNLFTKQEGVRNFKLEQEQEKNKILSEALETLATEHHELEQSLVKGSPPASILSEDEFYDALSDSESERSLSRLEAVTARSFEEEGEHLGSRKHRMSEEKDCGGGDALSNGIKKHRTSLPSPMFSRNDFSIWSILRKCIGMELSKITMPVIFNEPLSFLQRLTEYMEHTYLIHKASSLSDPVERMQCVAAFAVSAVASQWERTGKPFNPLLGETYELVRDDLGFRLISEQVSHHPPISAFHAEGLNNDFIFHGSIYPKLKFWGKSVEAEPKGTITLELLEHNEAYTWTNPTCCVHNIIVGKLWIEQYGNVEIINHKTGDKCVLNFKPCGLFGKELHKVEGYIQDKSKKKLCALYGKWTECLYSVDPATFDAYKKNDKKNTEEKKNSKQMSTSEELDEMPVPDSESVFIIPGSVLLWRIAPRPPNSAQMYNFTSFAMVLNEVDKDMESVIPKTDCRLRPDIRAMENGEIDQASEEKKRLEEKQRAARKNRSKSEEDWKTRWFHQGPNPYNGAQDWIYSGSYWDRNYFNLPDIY

B1: His-RILP (natural protein, UniProt Q96NA2 1-401, looked up)
chain: MEPRRAAPGVPGWGSREAAGSASAAELVYHLAGALGTELQDLARRFGPEAAAGLVPLVVRALELLEQAAVGPAPDSLQVSAQPAEQELRRLREENERLRRELRAGPQEERALLRQLKEVTDRQRDELRAHNRDLRQRGQETEALQEQLQRLLLVNAELRHKLAAMQTQLRAAQDRERERQQPGEAATPQAKERARGQAGRPGHQHGQEPEWATAGAGAPGNPEDPAEAAQQLGRPSEAGQCRFSREEFEQILQERNELKAKVFLLKEELAYFQRELLTDHRVPGLLLEAMKVAVRKQRKKIKAKMLGTPEEAESSEDEAGPWILLSDDKGDHPPPPESKIQSFFGLWYRGKAESSEDETSSPAPSKLGGEEEAQPQSPAPDPPCSALHEHLCLGASAAPEA
notes: RILP in pET-28a; source: prokaryotic expressed, purified
B2: GST-VAPa(1-225aa) (domain or fragment, UniProt Q9P0L0 1-225, looked up)
chain: MASASGAMAKHEQILVLDPPTDLKFKGPFTDVVTTNLKLRNPSDRKVCFKVKTTAPRRYCVRPNSGIIDPGSTVTVSVMLQPFDYDPNEKSKHKFMVQTIFAPPNTSDMEAVWKEAKPDELMDSKLRCVFEMPNENDKLNDMEPSKAVPLNASKQDGPMPKPHSVSLNDTETRKLMEECKRLQGEMMKLSEENRHLRDEGLRLRKVAHSDKPGSTSTASFRDNVT
notes: VAP-A (vesicle-associated membrane protein-associated protein A) residues 1-225, the cytoplasmic region; subcloned into pGEX-4T-1; also called GST-tagged VAP-A(1-225aa); source: prokaryotic expressed, retained on GST beads (GST-Sepharose 4B resin)

Assays:
His-ORP1L(336-950aa) = molecular target: T1, His-ORP1L(336-950aa); experiment: pull-down; in vitro binding: purified prokaryotic expressed His-ORP1L or His-ORP1L(336-950aa) with increasing amounts of His-RILP, incubated with GST-VAPa(1-225aa) retained on GST beads; ORP1L bound assessed by Western blot; conditions: both partners purified
His-ORP1L = molecular target: T2, His-ORP1L; experiment: as above; conditions: both partners purified

| Binder | binding result (His-ORP1L(336-950aa)) | binding result (His-ORP1L) |
| --- | --- | --- |
| B1 | binds |  |
| B2 | binds | binds |
